Results taken from article PMC7819943, “Rice protein-binding microarrays: a tool to detect cis-acting elements near promoter regions in rice”.

B1: Os01g0393100_8 (ONAC026 promoter probe) (dsDNA)
DNA 1: CTGGAATCTGAGGGGAACCACGTCACGTACACAAGTATAT
DNA 2: ATATACTTGTGTACGTGACGTGGTTCCCCTCAGATTCCAG
B2: Os01g0311500_18 (dsDNA)
DNA 1: TTGACGCCGTTGACTTTTTAGTACATGTTTGACCATTCGT
DNA 2: ACGAATGGTCAAACATGTACTAAAAAGTCAACGGCGTCAA
B3: Os05g0415400_39 (ONAC024 promoter probe) (dsDNA)
DNA 1: GATAATGAGTCAGTCCTCTTGTCGATACTCCGCCGGTATG
DNA 2: CATACCGGCGGAGTATCGACAAGAGGACTGACTCATTATC

Assays:
OsSMF1 = biological target: T1, OsSMF1 (Oryza sativa, UniProt Q6ZLB0 1-436); experiment: EMSA; EMSA: 5 ug protein, 40 fmol FAM-dsDNA, 1 ug poly(dI-dC), 1X binding buffer (Pierce), 2.5% glycerol, 0.05% NP-40, 20 ul, 1 h room temperature; 6% acrylamide gel; conditions: protein: recombinant; tags: N-terminal polyhistidine and DsRed monomer fusion (pET32a); chain copies: 2; label: 5' FAM; blunt
T1 sequence: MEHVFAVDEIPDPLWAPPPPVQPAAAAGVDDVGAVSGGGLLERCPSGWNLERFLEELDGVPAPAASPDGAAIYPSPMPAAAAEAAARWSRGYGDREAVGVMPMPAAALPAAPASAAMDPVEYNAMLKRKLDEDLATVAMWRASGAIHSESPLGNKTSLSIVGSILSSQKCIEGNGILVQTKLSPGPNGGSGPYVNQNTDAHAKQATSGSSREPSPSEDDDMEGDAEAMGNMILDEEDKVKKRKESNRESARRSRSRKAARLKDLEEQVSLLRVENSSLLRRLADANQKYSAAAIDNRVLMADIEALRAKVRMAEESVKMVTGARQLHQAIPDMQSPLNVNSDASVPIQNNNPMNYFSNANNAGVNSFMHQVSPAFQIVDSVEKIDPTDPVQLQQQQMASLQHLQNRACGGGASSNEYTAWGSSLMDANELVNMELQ

OsWRKY34 = OsWRKY34 (Oryza sativa, UniProt Q0JBA9 1-250); experiment: as above; conditions: protein: recombinant; tags: N-terminal polyhistidine and DsRed monomer fusion (pET32a); label: 5' FAM; blunt
Sequence of OsWRKY34 (Q0JBA9 entry or part of it): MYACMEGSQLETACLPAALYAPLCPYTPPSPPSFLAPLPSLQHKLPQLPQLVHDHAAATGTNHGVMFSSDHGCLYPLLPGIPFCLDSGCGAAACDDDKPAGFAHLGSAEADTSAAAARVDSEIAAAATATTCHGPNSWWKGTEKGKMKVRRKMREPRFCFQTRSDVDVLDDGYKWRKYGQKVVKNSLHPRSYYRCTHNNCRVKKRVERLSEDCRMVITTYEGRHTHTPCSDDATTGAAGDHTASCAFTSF

Row | Binder | binding result (OsSMF1) | binding result (OsWRKY34)
1 | B1 | binds | –
2 | B2 | – | binds
3 | B3 | binds | –
